In patent publication US20230391880A1 (published 2023):

T1: human TGF-β3 (human, UniProt P10600 301-412)
T1 sequence (looked up): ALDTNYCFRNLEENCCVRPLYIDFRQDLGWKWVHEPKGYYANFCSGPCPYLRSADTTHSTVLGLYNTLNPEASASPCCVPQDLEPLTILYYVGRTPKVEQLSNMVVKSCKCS

T2: human RANKL (receptor activator of nuclear factor-kappa B ligand) (human, UniProt O14788 140-317, limits assumed)
T2 construct: also called OPGL
T2 sequence (looked up): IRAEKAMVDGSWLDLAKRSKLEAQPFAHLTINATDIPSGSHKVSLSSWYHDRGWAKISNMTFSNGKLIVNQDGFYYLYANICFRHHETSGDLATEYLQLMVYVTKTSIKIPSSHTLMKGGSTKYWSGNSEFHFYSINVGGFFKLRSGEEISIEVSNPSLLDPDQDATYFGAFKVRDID

T3: human Activin A (human, UniProt A4D1W7 311-426, Activin A is a disulfide-linked homodimer of the inhibin beta A mature chain. One copy is given.)
T3 sequence: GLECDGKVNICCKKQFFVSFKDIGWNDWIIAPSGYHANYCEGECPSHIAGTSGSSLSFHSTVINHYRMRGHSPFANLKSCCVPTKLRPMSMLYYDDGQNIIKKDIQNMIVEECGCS

B1: bispecific antibody A241 (bispecific antibody, human IgG2, kappa)
heavy: QVQLVQSGAEVKKPGSSVKVSCKASGYTFSSNVISWVRQAPGQGLEWMGGVIPIVDIANYAQRFKGRVTITADESTSTTYMELSSLRSEDTAVYYCASTLGLVLDAMDYWGQGTLVTVSSGGGGSGGGGSGGGGSEVQLLESGGGLVQPGGSLRLSCAASGFTFSSYAMSWVRQAPGKGLEWVSGITGSGGSTYYADSVKGRFTISRDNSKNTLYLQMNSLRAEDTAVYYCAKDPGTTVIMSWFDPWGQGTLVTVSSASTKGPSVFPLAPCSRSTSESTAALGCLVKDYFPEPVTVSWNSGALTSGVHTFPAVLQSSGLYSLSSVVTVPSSNFGTQTYTCNVDHKPSNTKVDKTVERKCCVECPPCPAPPVAGPSVFLFPPKPKDTLMISRTPEVTCVVVDVSHEDPEVQFNWYVDGVEVHNAKTKPREEQFNSTFRVVSVLTVVHQDWLNGKEYKCKVSNKGLPAPIEKTISKTKGQPREPQVYTLPPSREEMTKNQVSLTCLVKGFYPSDIAVEWESNGQPENNYKTTPPMLDSDGSFFLYSKLTVDKSRWQQGNVFSCSVMHEALHNHYTQKSLSLSPGK
light: ETVLTQSPGTLSLSPGERATLSCRASQSLGSSYLAWYQQKPGQAPRLLIYGASSRAPGIPDRFSGSGSGTDFTLTISRLEPEDFAVYYCQQYADSPITFGQGTRLEIKGGGGSGGGGSGGGGSEIVLTQSPGTLSLSPGERATLSCRASQSVRGRYLAWYQQKPGQAPRLLIYGASSRATGIPDRFSGSGSGTDFTLTISRLEPEDFAVFYCQQYGSSPRTFGQGTKVEIKRTVAAPSVFIFPPSDEQLKSGTASVVCLLNNFYPREAKVQWKVDNALQSGNSQESVTEQDSKDSTYSLSSTLTLSKADYEKHKVYACEVTHQGLSSPVTKSFNRGEC
B2: bispecific antibody A237 (bispecific antibody)
heavy: QVQLVQSGAEVKKPGASVKVSCKASGYTFTSYGLSWVRQAPGQGLEWMGWIIPYNGNTNSAQKLQGRVTMTTDTSTSTAYMELRSLRSDDTAVYFCARDRDYGVNYDAFDIWGQGTMVTVSSGGGGSGGGGSGGGGSEVQLLESGGGLVQPGGSLRLSCAASGFTFSSYAMSWVRQAPGKGLEWVSGITGSGGSTYYADSVKGRFTISRDNSKNTLYLQMNSLRAEDTAVYYCAKDPGTTVIMSWFDPWGQGTLVTVSSASTKGPSVFPLAPCSRSTSESTAALGCLVKDYFPEPVTVSWNSGALTSGVHTFPAVLQSSGLYSLSSVVTVPSSNFGTQTYTCNVDHKPSNTKVDKTVERKCCVECPPCPAPPVAGPSVFLFPPKPKDTLMISRTPEVTCVVVDVSHEDPEVQFNWYVDGVEVHNAKTKPREEQFNSTFRVVSVLTVVHQDWLNGKEYKCKVSNKGLPAPIEKTISKTKGQPREPQVYTLPPSREEMTKNQVSLTCLVKGFYPSDIAVEWESNGQPENNYKTTPPMLDSDGSFFLYSKLTVDKSRWQQGNVFSCSVMHEALHNHYTQKSLSLSPGK
light: not shown

Experiments:
Test in all cases: BLI (Octet RED96), antagonist captured on biosensor, ligand in solution
[1] = target: human TGF-β1 (human, UniProt P01137 279-390)
Protocol: (§1) Binding activities of individual bifunctional antagonists to human ligands or target proteins were measured by biolayer interferometry (BLI) using Octet RED96 (FortéBIO, Pall Corporation, USA). Binding analysis was performed by first capturing the polypeptide bifunctional antagonists to biosensors followed by two baseline steps in 1× kinetic buffer. The bifunctional antagonists-captured biosensors were then submerged in wells containing different concentrations of specific individual ligand, such as RANKL, Activin A, activin B, Activin AB, myostatin, TGF-β1, TGF-β2 or TGF-β3, for 6 min association followed by 6 min of dissociation time in 1× kinetic buffer. The bifunctional antagonists-captured sensors were also dipped in wells containing 1× kinetic buffer to allow single reference subtraction in order to compensate for the natural dissociation of captured bifunctional antagonists. The binding sensorgrams were collected using the 8-channel detection mode on the Octet RED96 biosensor. Data were acquired and analyzed using the data acquisition software v11.1 (FortéBIO, Pall Corporation, USA).

[2] = target: T1, human TGF-β3
Protocol: as §1

[3] = target: T2, human RANKL (receptor activator of …)
Protocol: as §1

[4] = target: T3, human Activin A
Protocol: as §1

Sequence of human TGF-β1 (P01137 279-390 limits assumed): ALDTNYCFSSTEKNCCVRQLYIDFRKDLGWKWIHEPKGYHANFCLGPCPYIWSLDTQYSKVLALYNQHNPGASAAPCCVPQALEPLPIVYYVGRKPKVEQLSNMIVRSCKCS

Row | Binder | Kd [1] [pM] | Kd [2] [pM] | Kd [3] [pM] | Kd [4] [pM]
1 | B1 | ~2000 | ~300 | ~700 | –
2 | B2 | – | – | ~1 | ~300
